Results taken from patent US20240025984A1 (FLUX THERAPEUTICS, published 2024).

What was measured:
His-SynGAP-EC[1186-1277] = target: T1, His-SynGAP-EC[1186-1277] (Homo sapiens (Human), UniProt Q96PV0 956-1305); test: phage display panning, then polyclonal and monoclonal phage ELISA on plate-coated antigen (4 ug/ml)
T1 construct: Expressed in E. coli, purified on nickel resin, 15.75 kDa; also called SYNGAP1 fragment with N-terminal 6His tag
T1 sequence: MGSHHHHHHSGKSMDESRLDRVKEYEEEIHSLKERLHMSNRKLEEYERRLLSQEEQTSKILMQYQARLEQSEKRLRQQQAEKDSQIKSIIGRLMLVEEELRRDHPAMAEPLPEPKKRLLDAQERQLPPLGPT
Experimental: The concentration of the eluted phages was determined. First, the eluted phages were added to E. Coli TG1. TG1 was poured onto a plate and cultured upside down. The PFU was calculated based on the number of plaques (i.e. dead TG1) on the plate. The eluted phages were added to TG1 followed infection by helper phage and cultured. Phages were precipitated with PEG/NaCl and subsequently resuspended. The phages were screened using a polyclonal ELISA and a monoclonal ELISA. […] ([…]) or control buffer. The coated plate was washed, blocked, washed, and incubated with the amplified eluted phages. Subsequently the plate was washed and incubated with anti-phage-HRP antibody, washed, and incubated with TMB followed by HCL. The result readings were taken at 450 nm. The monoclonal phase ELISA was carried out according to the following. Single TG1 clones randomly selected from plates (described above) were cultured with helper phage. A total of 192 clones from round 3+96 clones from round 4+96 clones from round 5 were selected. The clones were centrifuged and the supernatant (i.e. the phages) were collected. […] The plate was washed, blocked, washed, incubated with the selected phages, washed, incubated with anti-phage-HRP antibody, washed, and incubated with TMB followed by HCL. The results were read of 450 nm.

[1] = target: T2, SYNGAP1-nanoluc-alfa-tag-fusion; test: cell-based or functional assay
T2 chain: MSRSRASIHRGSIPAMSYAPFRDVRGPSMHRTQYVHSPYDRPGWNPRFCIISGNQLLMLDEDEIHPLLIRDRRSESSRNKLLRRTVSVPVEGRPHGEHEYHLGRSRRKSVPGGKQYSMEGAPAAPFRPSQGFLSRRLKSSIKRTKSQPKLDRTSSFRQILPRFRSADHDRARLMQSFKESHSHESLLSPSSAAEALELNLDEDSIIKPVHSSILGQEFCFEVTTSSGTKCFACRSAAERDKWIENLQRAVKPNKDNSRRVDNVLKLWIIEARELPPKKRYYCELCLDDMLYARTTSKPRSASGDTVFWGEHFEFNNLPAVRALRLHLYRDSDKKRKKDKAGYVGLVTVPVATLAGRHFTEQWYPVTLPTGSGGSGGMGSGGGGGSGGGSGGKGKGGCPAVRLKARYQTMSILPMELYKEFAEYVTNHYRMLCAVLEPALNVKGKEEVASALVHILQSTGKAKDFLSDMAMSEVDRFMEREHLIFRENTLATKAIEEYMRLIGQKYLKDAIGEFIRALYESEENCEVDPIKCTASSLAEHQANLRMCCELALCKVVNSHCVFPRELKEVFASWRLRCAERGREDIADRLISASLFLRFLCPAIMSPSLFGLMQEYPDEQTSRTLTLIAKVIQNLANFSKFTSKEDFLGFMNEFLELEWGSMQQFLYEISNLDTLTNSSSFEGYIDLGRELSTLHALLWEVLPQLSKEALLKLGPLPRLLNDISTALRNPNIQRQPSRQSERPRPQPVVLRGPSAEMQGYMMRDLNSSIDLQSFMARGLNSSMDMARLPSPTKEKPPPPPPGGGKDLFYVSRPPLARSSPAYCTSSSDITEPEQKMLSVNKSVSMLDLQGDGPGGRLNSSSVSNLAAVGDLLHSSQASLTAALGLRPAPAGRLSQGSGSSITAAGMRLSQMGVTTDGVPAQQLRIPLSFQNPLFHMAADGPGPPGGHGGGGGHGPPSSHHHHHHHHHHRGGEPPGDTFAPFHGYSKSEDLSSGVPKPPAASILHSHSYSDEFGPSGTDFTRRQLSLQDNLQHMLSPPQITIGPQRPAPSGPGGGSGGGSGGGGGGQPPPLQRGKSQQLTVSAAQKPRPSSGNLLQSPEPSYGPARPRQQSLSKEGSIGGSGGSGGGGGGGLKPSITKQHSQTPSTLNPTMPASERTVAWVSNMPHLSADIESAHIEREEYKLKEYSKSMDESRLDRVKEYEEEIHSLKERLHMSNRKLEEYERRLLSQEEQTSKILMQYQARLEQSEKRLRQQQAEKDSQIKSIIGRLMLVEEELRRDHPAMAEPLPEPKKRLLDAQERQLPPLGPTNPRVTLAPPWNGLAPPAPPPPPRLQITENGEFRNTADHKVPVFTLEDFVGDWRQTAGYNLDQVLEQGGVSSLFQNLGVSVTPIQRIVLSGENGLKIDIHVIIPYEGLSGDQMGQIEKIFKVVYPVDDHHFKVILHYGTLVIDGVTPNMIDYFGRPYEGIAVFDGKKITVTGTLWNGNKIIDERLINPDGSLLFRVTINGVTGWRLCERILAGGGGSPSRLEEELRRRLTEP

Row | Binder | binding result (His-SynGAP-EC[1186-1277]) | increase in SYNGAP1 expression over the control [1] [fold]
1 | FLX00152 (VHH, Camelid VHH from a phage library; also called anti-SynGAP VHH FLX00152; VHH) VHH: QVQLVESGGGLVQPGGSLRLSCAASGFSFSNFPMMWVRQAPGKGREWVADINQDGRNTYYADSVKGRFTISRDNAKTTVYLQMNNLNPEDTAVYYCQAIRTTTHFDSWGQGTQVTVSS | binds | –
2 | FLX00154 (VHH, Camelid VHH from a phage library; also called anti-SynGAP VHH FLX00154; VHH) VHH: QVQLVESGGGLVQPGGSLRLSCAASGFIFSSYQMAWVRQAPGKGLEWVADINTGGWNTYYADSVKGRFTISRDNAKNTLYLEMNSLKPEDTAVYYCAADRWMVAKIVGGDLDFDSWGQGTQVTVSS | binds | –
3 | FLX00155 (VHH, Camelid VHH from a phage library; also called anti-SynGAP VHH FLX00155; VHH) VHH: QVQLVESGGGLVQPGGSLRLSCAASGFAFGSYDMSWVRQAPGQGPEWVSAITPGGGGTFYAYYSDSVKGRFAISRDNAKNTLTLQMNSLKPDDTAMYYCAKNFYGNGGRGHGTQVTVSS | binds | –
4 | FLX00157 (VHH, Camelid VHH from a phage library; also called anti-SynGAP VHH FLX00157; VHH) VHH: QVQLVESGGGLVQAGASLRLSCAASERTFGHYAMGWFRQAPGKEREFVATISWKGGTTGYAHSVKGRFTISRDSAKNMVYLQMNSLKPEDTAVYYCAARNTMSGSMSSSAYPYWGQGTQVTVSS | binds | –
5 | FireflyLuciferase-P2A-anti-syngap1_FLX00154-Cezanne (other) MEDAKNIKKGPAPFYPLEDGTAGEQLHKAMKRYALVPGTIAFTDAHIEVDITYAEYFEMSVRLAEAMKRYGLNTNHRIVVCSENSLQFFMPVLGALFIGVAVAPANDIYNERELLNSMGISQPTVVFVSKKGLQKILNVQKKLPIIQKIIIMDSKTDYQGFQSMYTFVTSHLPPGFNEYDFVPESFDRDKTIALIMNSSGSTGLPKGVALPHRTACVRFSHARDPIFGNQIIPDTAILSVVPFHHGFGMFTTLGYLICGFRVVLMYRFEEELFLRSLQDYKIQSALLVPTLFSFFAKSTLIDKYDLSNLHEIASGGAPLSKEVGEAVAKRFHLPGIRQGYGLTETTSAILITPEGDDKPGAVGKVVPFFEAKVVDLDTGKTLGVNQRGELCVRGPMIMSGYVNNPEATNALIDKDGWLHSGDIAYWDEDEHFFIVDRLKSLIKYKGYQVAPAELESILLQHPNIFDAGVAGLPDDDAGELPAAVVVLEHGKTMTEKEIVDYVASQVTTAKKLRGGVVFVDEVPKGLTGKLDARKIREILIKAKKGGKIAVTRLKGSGATNFSLLKQAGDVEENPGPRSGTGSSGQVQLVESGGGLVQPGGSLRLSCAASGFIFSSYQMAWVRQAPGKGLEWVADINTGGWNTYYADSVKGRFTISRDNAKNTLYLEMNSLKPEDTAVYYCAADRWMVAKIVGGDLDFDSWGQGTQVTVSSGGGGSGGGGSGGGGSGGGGSQVQLVESGGGLVQPGGSLRLSCAASGFIFSSYQMAWVRQAPGKGLEWVADINTGGWNTYYADSVKGRFTISRDNAKNTLYLEMNSLKPEDTAVYYCAADRWMVAKIVGGDLDFDSWGQGTQVTVSSGAPGSGPPSFSEGSGGSRTPEKGFSDREPTRPPRPILQRQDDIVQEKRLSRGISHASSSIVSLARSHVSSNGGGGGSNEHPLEMPICAFQLPDLTVYNEDFRSFIERDLIEQSMLVALEQAGRLNWWVSVDPTSQRLLPLATTGDGNCLLHAASLGMWGFHDRDLMLRKALYALMEKGVEKEALKRRWRWQQTQQNKESGLVYTEDEWQKEWNELIKLASSEPRMHLGTNGANCGGVESSEEPVYESLEEFHVFVLAHVLRRPIVVVADTMLRDSGGEAFAPIPFGGIYLPLEVPASQCHRSPLVLAYDQAHFSALVSMEQKENTKEQAVIPLTDSEYKLLPLHFAVDPGKGWEWGKDDSDNVRLASVILSLEVKLHLLHSYMNVKWIPLSSDAQAPLAQ | – | ≥ 2
6 | FLX00156 (VHH, Camelid VHH from a phage library; also called anti-SynGAP VHH FLX00156; VHH) VHH: QVQLVESGGGLVQPGGSLRLACAASGFTFGTHAMHWVRWAPGKGFEWVSTISSGGGGTRYADSVKGRFTISRDNAKNTVYLQMDNLKPEDTAVYYCNSPSNIANDNWGQGTQVTVSS | binds | –
7 | FLX00153 (VHH, Camelid VHH from a phage library; also called anti-SynGAP VHH FLX00153; VHH) VHH: QLQLVESGGGLVQPGESLRLSCAASGFTFSNYRMYWVRMAPGKGLEWVSDIDRSGTYTYYADSVKGRFAISRDNAKNTVYLQMNSLKPEDTAVYYCAADRRLIVDLTPEVYDHWGQGTQVTVSS | binds | –
8 | FireflyLuciferase-P2A-anti-syngap1_FLX00155-Cezanne (other) MEDAKNIKKGPAPFYPLEDGTAGEQLHKAMKRYALVPGTIAFTDAHIEVDITYAEYFEMSVRLAEAMKRYGLNTNHRIVVCSENSLQFFMPVLGALFIGVAVAPANDIYNERELLNSMGISQPTVVFVSKKGLQKILNVQKKLPIIQKIIIMDSKTDYQGFQSMYTFVTSHLPPGFNEYDFVPESFDRDKTIALIMNSSGSTGLPKGVALPHRTACVRFSHARDPIFGNQIIPDTAILSVVPFHHGFGMFTTLGYLICGFRVVLMYRFEEELFLRSLQDYKIQSALLVPTLFSFFAKSTLIDKYDLSNLHEIASGGAPLSKEVGEAVAKRFHLPGIRQGYGLTETTSAILITPEGDDKPGAVGKVVPFFEAKVVDLDTGKTLGVNQRGELCVRGPMIMSGYVNNPEATNALIDKDGWLHSGDIAYWDEDEHFFIVDRLKSLIKYKGYQVAPAELESILLQHPNIFDAGVAGLPDDDAGELPAAVVVLEHGKTMTEKEIVDYVASQVTTAKKLRGGVVFVDEVPKGLTGKLDARKIREILIKAKKGGKIAVTRLKGSGATNFSLLKQAGDVEENPGPRSGTGSSGQVQLVESGGGLVQPGGSLRLSCAASGFAFGSYDMSWVRQAPGQGPEWVSAITPGGGGTFYAYYSDSVKGRFAISRDNAKNTLTLQMNSLKPDDTAMYYCAKNFYGNGGRGHGTQVTVSSGGGGSGGGGSGGGGSGGGGSQVQLVESGGGLVQPGGSLRLSCAASGFAFGSYDMSWVRQAPGQGPEWVSAITPGGGGTFYAYYSDSVKGRFAISRDNAKNTLTLQMNSLKPDDTAMYYCAKNFYGNGGRGHGTQVTVSSGAPGSGPPSFSEGSGGSRTPEKGFSDREPTRPPRPILQRQDDIVQEKRLSRGISHASSSIVSLARSHVSSNGGGGGSNEHPLEMPICAFQLPDLTVYNEDFRSFIERDLIEQSMLVALEQAGRLNWWVSVDPTSQRLLPLATTGDGNCLLHAASLGMWGFHDRDLMLRKALYALMEKGVEKEALKRRWRWQQTQQNKESGLVYTEDEWQKEWNELIKLASSEPRMHLGTNGANCGGVESSEEPVYESLEEFHVFVLAHVLRRPIVVVADTMLRDSGGEAFAPIPFGGIYLPLEVPASQCHRSPLVLAYDQAHFSALVSMEQKENTKEQAVIPLTDSEYKLLPLHFAVDPGKGWEWGKDDSDNVRLASVILSLEVKLHLLHSYMNVKWIPLSSDAQAPLAQ | – | ≥ 2
